Measurements from paper PMC4147340, “Mode and specificity of binding of the small molecule GANT61 to GLI determines inhibition of GLI-DNA binding” (Oncotarget, 2014).

How the values were obtained:
[1] = system: GLI1 (full length, GLI1-WT); assay: SPR; conditions: Biacore 3000, HBS-P buffer, 20 ul/min, 3 min association, 5 min dissociation; pH, salt and temperature not stated
[2] = system: GLI1 (full length, GLI1-WT); assay: SPR inhibition; conditions: Biacore 3000, HBS-P buffer, 20 ul/min, 3 min association, 5 min dissociation; pH, salt and temperature not stated
[3] = molecular target: T1, GLI1 (ΔGLI-DM) (Homo sapiens, UniProt P08151, E250A/E298A); assay: SPR, ΔGLI-DM immobilized on Ni-NTA chip, GANT61 […] as analyte; assay type: binding
T1 sequence (P08151 234-388 E250A/E298A limits assumed): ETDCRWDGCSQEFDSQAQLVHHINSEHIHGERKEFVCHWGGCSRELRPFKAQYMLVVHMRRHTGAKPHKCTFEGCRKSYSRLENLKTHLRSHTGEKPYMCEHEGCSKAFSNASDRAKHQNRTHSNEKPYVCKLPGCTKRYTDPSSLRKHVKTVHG

[4] = molecular target: T2, GLI1 (Homo sapiens, UniProt P08151); assay: SPR (Biacore […]), GLI1 immobilized on CM5 chip, GANT61 […] as analyte; assay type: binding
T2 construct: Full length GLI1 (OriGene)
T2 sequence (P08151 1-1106): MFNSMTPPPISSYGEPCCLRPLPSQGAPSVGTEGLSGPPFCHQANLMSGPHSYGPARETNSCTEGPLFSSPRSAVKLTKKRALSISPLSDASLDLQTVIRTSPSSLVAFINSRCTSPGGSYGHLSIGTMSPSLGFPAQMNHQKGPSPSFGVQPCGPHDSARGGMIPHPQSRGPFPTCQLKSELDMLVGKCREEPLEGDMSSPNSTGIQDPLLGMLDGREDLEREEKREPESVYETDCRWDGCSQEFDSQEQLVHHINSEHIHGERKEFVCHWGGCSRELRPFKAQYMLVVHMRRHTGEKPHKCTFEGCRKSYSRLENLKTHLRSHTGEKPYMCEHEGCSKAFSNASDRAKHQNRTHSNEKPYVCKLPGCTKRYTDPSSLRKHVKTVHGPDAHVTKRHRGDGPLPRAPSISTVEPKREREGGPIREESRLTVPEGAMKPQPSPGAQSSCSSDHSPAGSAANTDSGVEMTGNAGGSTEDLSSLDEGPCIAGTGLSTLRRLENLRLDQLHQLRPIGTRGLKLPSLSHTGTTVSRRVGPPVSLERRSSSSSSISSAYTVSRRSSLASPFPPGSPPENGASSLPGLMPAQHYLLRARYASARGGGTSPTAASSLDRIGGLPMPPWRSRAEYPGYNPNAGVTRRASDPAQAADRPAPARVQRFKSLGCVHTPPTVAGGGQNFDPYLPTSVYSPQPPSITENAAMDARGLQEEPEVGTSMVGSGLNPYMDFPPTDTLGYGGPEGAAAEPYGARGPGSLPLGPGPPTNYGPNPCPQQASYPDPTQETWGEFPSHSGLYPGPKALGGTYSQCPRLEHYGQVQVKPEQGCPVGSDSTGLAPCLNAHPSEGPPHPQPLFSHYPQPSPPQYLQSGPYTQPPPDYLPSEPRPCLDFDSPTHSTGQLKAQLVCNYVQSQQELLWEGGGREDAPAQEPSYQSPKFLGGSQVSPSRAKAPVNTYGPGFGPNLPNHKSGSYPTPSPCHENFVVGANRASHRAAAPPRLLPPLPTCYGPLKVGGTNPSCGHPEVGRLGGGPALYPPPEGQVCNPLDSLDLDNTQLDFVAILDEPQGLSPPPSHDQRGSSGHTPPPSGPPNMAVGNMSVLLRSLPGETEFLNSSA

Kd [3] | Kd [4] | Compound | Kd [1] | K half [2]
 |  | biotinylated GLI1 DNA-binding sequence (21-mer) | 5.5 µM | 3.2 µM
26.1 µM | 7.5 µM | CN(C)c1ccccc1CN1CCCN(Cc2ccccc2N(C)C)C1c1ccncc1 [GANT61] |  | 
